Paper PMC9820267

Molecular target: PSD-95 (DLG4) (UniProt Q62108)
Test: GST pull-down from cotransfected COS7 lysate
Details: reference: wild type (treatment condition of comparison not stated); sites T585,T612

Q: With “PSD-93 (DLG2) PDZ3-SH3, 390-620 (from UniProt Q91XM9) T585A/T612A” as the substance, how does the “binding against the reference” value read?
A: The value was “weaker”.
